# Assay results taken from US11911450B2, “Method for managing pain” (UNIVERSITY OF MIAMI, priority 2017, dated 2024).
# B1: Car10: carbonic anhydrase 10, rodent ortholog, overexpressed (V5-tagged) protein (protein)
# chain: MEIVWEVLFLLQANFIVCISAQQNSPKIHEGWWAYKEVVQGSFVPVPSFWGLVNSAWNLCSVGKRQSPVNIETSHMIFDPFLTPLRINTGGRKVSGTMYNTGRHVSLRLDKEHLVNISGGPMTYSHRLEEIRLHFGSEDSQGSEHLLNGQAFSGEVQLIHYNHELYTNVTEAAKSPNGLVVVSIFIKVSDSSNPFLNRMLNRDTITRITYKNDAYLLQGLNIEELYPETSSFITYDGSMTIPPCYETASWIIMNKPVYITRMQMHSLRLLSQNQPSQIFLSMSDNFRPVQPLNNRCIRTNINFSLQGKDCPNNRAQKLQYRVNEWLLK
# modifications: left off: small tags and cut ends
# notes: carbonic anhydrase 10, rodent ortholog, overexpressed (V5-tagged) protein
# B2: CA10: human carbonic anhydrase 10, overexpressed (V5-tagged) protein; SEQ ID NO: 9 (protein)
# chain: B1 chain
# modifications: V5 tag
# Columns and labels:
# [1] = tested on: ITPR1-mediated cytoplasmic calcium release; assay: ATP-induced cytoplasmic calcium release in HEK293 cells (Fura-2 imaging); format: cell-based, human; conditions: 1 μM ATP, overexpression vs empty vector
# Experimental: Cell culture and transfections: Human neuronal-derived (e.g., NBL), human non-neuronal derived (e.g., HEK293) cells, or dispersed rodent primary DRG cells can be used. HEK293 cells (cat #CRL-1573 ATCC Manassas, VA) were cultured in Dulbecco's modified Eagle's medium (DMEM-Glutamax cat #0566; Invitrogen) supplemented with 10% fetal bovine serum, FBS (cat #16140 ThermoFisher scientific, Waltham, MA) and 1% penicillin/streptomycin (cat #15140 ThermoFisher scientific, Waltham, MA). Cells were seeded in six-well plates at density of 1.0×10^5 cells per well. The following day, cells were transfected with plasmids via lipofectamine LTX reagent and plus (cat #15338 ThermoFisher scientific, Waltham, MA). For each transfection 2 μg of AAV2-ITR (control), AAV2-V5-Car10, or AAV2-V5-CA10 vectors was used. In various embodiments of the disclosure described herein, 2 μg of expression vectors (including positive and negative controls) in instances when AAV2 is not the viral vector employed.
# Pharmacodynamics—Bioassay of Calcium Release: Fifteen mm glass coverslips (cat #72228 Electron Microscopy Sciences, Hatfield, PA) were coated with poly-D-Lysine (Sigma) followed by Laminin and 1×10^5 cells were seeded on each coverslip. Twenty-four hrs later, cells were transfected with AAV2-ITR, AAV2-V5-Car10, or AAV2-V5-CA10 vectors as previously described. In embodiments wherein AAV2 is not employed, other expression vectors (including viral vectors) are used. Fura-2AM (cat #F1221 ThermoFisher scientific, Waltham, MA) was dissolved in DMSO (50 μg in 50 μl) and 1% pluronic acid-127 (cat #P2443 Sigma, St Louis, MO) as the stock solution. Forty eight hrs after seeding, cells were loaded with 2 μM Fura-2AM dye for 45 min at room temperature in the dark in a standard Ca+2 buffer solution containing: 125 mM NaCl, 2 mM MgCl, 4.5 mM KCl, 10 glucose, 20 mM HEPES, 2 mM CaCl2, pH 7.4.25. Following dye loading, coverslips were washed with Ca^+2 buffer solution. […] Regions of interest over the field of view were selected and the mean pixels intensity at each frame was measured. Data was plotted as ratio fluorescence intensity versus time and subsequently converted to a relative scale.
# To further examine whether FLAG-CA8-204 (data not shown), V5-Car10 and V5-CA10 overexpression can inhibit ATP-induced calcium release, HEK293 cells were infected with each if these constructs and real-time intracellular calcium concentrations at baseline and in response to ATP stimulation were measured (FIG. 2). […]
# ITPR1 = ITPR1 (Homo sapiens, UniProt Q14643); assay: co-immunoprecipitation / western blot with ITPR1 and pITPR1; format: binding; parameters: before and after forskolin stimulation of HEK293 cells was conducted; endogenous in cells; host or cells: HEK293 (ATCC CRL-1573); conditions: HEK293 cells, before and after forskolin stimulation
# Experimental: Immunoprecipitation: Fifty μl magnetic beads (Invitrogen) were incubated with 1 μg pITPR1 antibody for 45 minutes at 4° C. The supernatant was discarded and the beads were washed with binding buffer. Sample proteins of 200-400 μg were added and incubated with the beads for 4 hrs at 4° C. Then the protein complex was washed 3 times with washing buffer, and then eluted with SDS sample buffer. Samples were then heated at 70° C. for 10 min and then subjected to western blot analysis for Car10. The method described herein also is suitable for use in connection with Car8, CA8, CA8 fragment (CA8-204), CA10, Car11 and CA11.
# Overexpression of V5-Car10 and V5-CA10 inhibits ATP-induced free calcium release in vitro: ITPR1 contains functionally distinct domains, including the ‘modulatory’ domain responding to intracellular modulators such as calcium, calmodulin, ATP, and carbonic anhydrase-8 (Car8). ATP increases ITPR1-dependent calcium release by increasing the open probability of the channel in the presence of activating concentrations of IP3 and calcium. It is believed that Car8-mediated inhibition of ITPR1 activation and ATP-mediated calcium release requires binding to this modulatory domain. Therefore, the ability of CA8 fragments (e.g., CA8-204), Car10 and CA10 to bind to ITPR1 and pITPR1 was examined. […]
# Chain of ITPR1 (Q14643 whole entry): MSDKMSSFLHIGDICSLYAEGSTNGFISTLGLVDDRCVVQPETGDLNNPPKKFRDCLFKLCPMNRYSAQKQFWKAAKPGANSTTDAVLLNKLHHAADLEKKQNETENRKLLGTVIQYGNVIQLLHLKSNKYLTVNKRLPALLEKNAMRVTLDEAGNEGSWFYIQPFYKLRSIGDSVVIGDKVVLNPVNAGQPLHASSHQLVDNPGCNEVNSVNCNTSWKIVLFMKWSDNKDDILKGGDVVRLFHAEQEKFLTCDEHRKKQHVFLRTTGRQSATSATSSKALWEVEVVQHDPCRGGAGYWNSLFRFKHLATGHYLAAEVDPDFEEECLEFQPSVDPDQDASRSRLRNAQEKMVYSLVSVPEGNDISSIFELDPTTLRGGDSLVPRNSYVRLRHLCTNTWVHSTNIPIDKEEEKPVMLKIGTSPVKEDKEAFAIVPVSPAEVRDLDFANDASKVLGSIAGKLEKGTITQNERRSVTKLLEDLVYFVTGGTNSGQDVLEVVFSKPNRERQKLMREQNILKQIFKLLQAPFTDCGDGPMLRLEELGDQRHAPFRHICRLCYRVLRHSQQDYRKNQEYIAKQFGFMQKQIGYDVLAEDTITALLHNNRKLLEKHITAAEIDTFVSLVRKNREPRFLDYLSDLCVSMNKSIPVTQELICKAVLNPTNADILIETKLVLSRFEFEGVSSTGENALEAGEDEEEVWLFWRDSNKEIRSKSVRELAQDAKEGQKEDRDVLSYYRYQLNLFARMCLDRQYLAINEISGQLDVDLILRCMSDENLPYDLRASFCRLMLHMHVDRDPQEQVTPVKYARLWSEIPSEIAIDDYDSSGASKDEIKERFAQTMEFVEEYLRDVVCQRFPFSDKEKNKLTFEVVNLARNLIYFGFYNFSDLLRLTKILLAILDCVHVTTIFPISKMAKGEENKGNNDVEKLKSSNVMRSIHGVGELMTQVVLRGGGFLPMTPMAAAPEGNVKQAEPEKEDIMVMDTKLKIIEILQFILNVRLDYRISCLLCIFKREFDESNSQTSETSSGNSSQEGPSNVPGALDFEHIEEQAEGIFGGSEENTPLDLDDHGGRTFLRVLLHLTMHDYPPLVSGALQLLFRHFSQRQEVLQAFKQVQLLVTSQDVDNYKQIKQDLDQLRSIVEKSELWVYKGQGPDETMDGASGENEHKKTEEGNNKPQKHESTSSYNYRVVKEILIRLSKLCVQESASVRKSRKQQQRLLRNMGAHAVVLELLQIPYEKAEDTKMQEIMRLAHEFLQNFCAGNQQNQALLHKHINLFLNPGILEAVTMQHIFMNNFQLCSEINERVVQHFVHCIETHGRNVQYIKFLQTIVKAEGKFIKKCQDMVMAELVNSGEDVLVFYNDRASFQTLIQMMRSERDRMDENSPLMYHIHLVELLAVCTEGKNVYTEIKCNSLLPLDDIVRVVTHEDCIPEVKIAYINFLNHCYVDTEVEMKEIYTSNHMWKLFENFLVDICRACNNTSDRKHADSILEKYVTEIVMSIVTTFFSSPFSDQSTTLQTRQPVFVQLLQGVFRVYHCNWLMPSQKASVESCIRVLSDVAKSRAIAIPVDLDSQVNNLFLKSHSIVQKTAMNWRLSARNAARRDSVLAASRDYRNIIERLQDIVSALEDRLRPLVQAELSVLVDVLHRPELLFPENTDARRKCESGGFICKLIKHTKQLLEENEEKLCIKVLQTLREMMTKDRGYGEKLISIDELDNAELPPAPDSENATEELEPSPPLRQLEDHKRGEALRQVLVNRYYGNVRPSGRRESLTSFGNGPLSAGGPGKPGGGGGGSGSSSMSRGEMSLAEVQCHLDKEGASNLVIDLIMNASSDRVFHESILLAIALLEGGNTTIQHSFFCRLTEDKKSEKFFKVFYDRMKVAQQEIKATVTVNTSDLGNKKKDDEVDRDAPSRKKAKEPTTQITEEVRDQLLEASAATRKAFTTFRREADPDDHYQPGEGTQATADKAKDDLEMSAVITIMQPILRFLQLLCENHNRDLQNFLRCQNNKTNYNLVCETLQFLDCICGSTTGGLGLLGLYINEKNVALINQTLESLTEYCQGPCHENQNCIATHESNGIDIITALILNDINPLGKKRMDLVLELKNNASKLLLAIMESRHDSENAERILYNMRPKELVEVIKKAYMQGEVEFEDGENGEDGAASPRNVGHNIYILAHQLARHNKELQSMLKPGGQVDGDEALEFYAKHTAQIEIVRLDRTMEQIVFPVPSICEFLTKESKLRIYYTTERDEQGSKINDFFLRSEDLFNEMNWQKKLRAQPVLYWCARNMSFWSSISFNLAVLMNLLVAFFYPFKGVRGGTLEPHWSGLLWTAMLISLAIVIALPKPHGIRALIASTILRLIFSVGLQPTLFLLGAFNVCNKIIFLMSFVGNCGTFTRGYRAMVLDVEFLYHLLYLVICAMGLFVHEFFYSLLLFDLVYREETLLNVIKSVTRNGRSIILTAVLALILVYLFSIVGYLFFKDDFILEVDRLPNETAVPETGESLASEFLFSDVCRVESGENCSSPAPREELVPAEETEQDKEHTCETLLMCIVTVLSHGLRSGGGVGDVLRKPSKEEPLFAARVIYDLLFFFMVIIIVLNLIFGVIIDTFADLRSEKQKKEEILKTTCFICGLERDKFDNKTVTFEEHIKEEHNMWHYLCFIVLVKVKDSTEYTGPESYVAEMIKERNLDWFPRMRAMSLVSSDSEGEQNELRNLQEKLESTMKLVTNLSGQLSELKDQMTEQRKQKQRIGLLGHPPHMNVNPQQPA
Molecule,ATP-induced cytoplasmic calcium release (Fura-2 340/380 ratio) [1],ATP-induced cytoplasmic calcium release (Fura-2 340/380 ratio) ([1]; listed as V5-Car10),binding to ITPR1 (co-immunoprecipitation) (ITPR1),ATP-induced cytoplasmic calcium release (Fura-2 340/380 ratio) ([1]; listed as V5-CA10)
B1,inhibits ITPR1-mediated cytoplasmic calcium release,inhibits ATP-induced cytoplasmic calcium release,do not bind to ITPR1,–
B2,inhibits ITPR1-mediated cytoplasmic calcium release,–,do not bind to ITPR1,inhibits ATP-induced cytoplasmic calcium release
